T1: Gαo–RGS17 interaction (Homo sapiens, UniProt Q9UGC6)
T1 sequence (Q9UGC6 61-210 limits assumed): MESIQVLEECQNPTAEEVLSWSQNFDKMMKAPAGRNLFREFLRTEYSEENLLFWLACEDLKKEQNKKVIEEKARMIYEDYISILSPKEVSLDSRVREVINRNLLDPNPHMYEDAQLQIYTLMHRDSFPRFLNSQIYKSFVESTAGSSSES

B1: GST-RGS17 (human RGS17 with an N-terminal glutathione-S-transferase and a C-terminal 6xHis tag) (domain or fragment, UniProt Q9UGC6 61-210, looked up)
chain: T1 sequence (Q9UGC6 61-210 limits assumed)
B2: 6x-His-tagged Gαo, not biotinylated (free Gαo) (natural protein, UniProt P59215 1-354, looked up)
chain: MGCTLSAEERAALERSKAIEKNLKEDGISAAKDVKLLLLGAGESGKSTIVKQMKIIHEDGFSGEDVKQYKPVVYSNTIQSLAAIVRAMDTLGVEYGDKERKADSKMVCDVVSRMEDTEPFSAELLSAMMRLWGDSGIQECFNRSREYQLNDSAKYYLDSLDRIGAADYQPTEQDILRTRVKTTGIVETHFTFKNLHFRLFDVGGQRSERKKWIHCFEDVTAIIFCVALSGYDQVLHEDETTNRMHESLMLFDSICNNKFFIDTSIILFLNKKDLFGEKIKKSPLTICFPEYPGSNTYEDAAAYIQTQFESKNRSPNKEIYCHMTCATDTNNIQVVFDAVTDIIIANNLRGCGLY
B3: free Gαo: un-biotinylated Gαo protein used as competitor in the AlphaScreen competition binding assay (protein)
chain: B2 chain
modifications: left off: His6, end not stated, state not stated

How the values were obtained:
[1] = target: biotinylated 6x-His-tagged Gαo (UniProt P59215 1-354, biotin (EZ-Link Biotin-BMCC, maleimide chemistry, labeled at a 10:1 biotin/protein ratio)); experiment: AlphaScreen or HTRF
[2] = target: B1; experiment: AlphaScreen or HTRF
[3] = target: T1, Gαo–RGS17 interaction; experiment: AlphaScreen competition binding with free Gαo

Molecule: B1
Kd [1]: 29.2 ± 4.4 nM

Molecule: B2
IC50 [2]: 46 ± 1.1 nM

Molecule: B3
Hill slope [3]: −1.3

From paper PMC5525514 (Journal of biomolecular screening, 2011)
